Test results reported in patent US5976859.

How the values were obtained:
[1] = target: casein
[2] = target: β-casein
[3] = target: Azocoll

proteolytic activity (U/mg), casein as substrate [1]: 4290 U/mg | percent of β-casein hydrolyzed, band intensity on SDS-PAGE [2]: 87 % hydrolyzed | hydrolysis of Azocoll, absorbance at 520 nm (% of original activity) [3]: 47
Substance: protease Q (enzyme)
